Laboratory results: patent US20260185118A1 (priority 2023, published 2026)
Substitutions are numbered along the chain they refer to.

B1: CsPUB21DN (protein)
chain: MILSWKRLRGGRGRRAGKKQPGVESGGEMELTTPNHFRAPISLDLMKDPVTLSTGITYDRENIEKWIHEDGNITCPVTNRVLTSFEPIPNHTIRRMIQDWCVENRSYGIERIPTPRIPVSSVEVFEINCNITTACKSEDQAGCRDLVAKIKKWTKESDRNKRCIVDNGAVSVLAEAFETFSKTCLDENVSVLEEILSTLTLLFPLAGEGLTYLGSASSMRCMVWFLKSGDLSRRRNAVLVLREIVSSDHRKVNVLLDIEGAIEPLFKLIKEPICPTATKASLVVVYRTITSASATEKPIQKFVDMGLVSLLLEMLVDAQRSLCEKALSVLDGLCSSDYGRGDAYNNSLIFPVIVKKILRVSDLATEFAVSILWKLCKNEEREEKTAFAEALQVGAFQKLLLLLQVGCADKTKEHVSELLKLLNPHRARLECIDSMDFKDLKRPF
modifications: left off: large carriers
B2: CsPUB21: citrus plant U-box E3 ubiquitin ligase protein, amino acid sequence SEQ ID No. 1; overexpressed in citrus (protein)
chain: B1 chain with A39C

What was measured:
CsPUB21 = type: biochemical, Citrus sinensis; details: in the presence of E1 (AtUBA1) and E2 (AtUBC8), anti-c-myc immunoblot
[1] = test system: Diaphorina citri Kuwayama; type: in vivo; details: overexpressing leaves versus blank vector control leaves, 100 psyllids starved 2 h, counted after 40 min
CsMYC2 [2] = type: binding, Citrus sinensis; details: yeast AH109, SD-Leu-Trp-His with 5 mM 3-AT
CsMYC2 [3] = type: biochemical, Citrus sinensis; details: with AtUBA1, AtUBC8 and ubiquitin, anti-MBP immunoblot
CsMYC2 protein = type: cell-based, Citrus sinensis; details: tobacco leaves, 35S:CsMYC2-myc co-injected, versus 35S:YFP
CsMYC2 [4] = type: cell-based, Citrus sinensis; details: tobacco leaves, 2-3 days, cytoplasm and nucleus

Row | Molecule | E3 ubiquitin ligase activity (auto-ubiquitination) (CsPUB21) | Diaphorina citri Kuwayama attracted by leaves of transgenic citrus [1] | interaction with CsMYC2 (yeast two-hybrid) (CsMYC2 [2]) | polyubiquitination of the CsMYC2 protein in vitro (CsMYC2 [3]) | accumulated level of the CsMYC2 protein on coexpression (CsMYC2 protein) | interaction with CsMYC2 (BiFC) (CsMYC2 [4])
1 | B1 | does not show ubiquitination activity | about 40% | does not affect the interaction with CsMYC2 | cannot ubiquitinate CsMYC2 | this reduction was inhibited | does not affect the interaction with CsMYC2
2 | B2 | – | 63.5% | – | – | – | –
